Substrate: O=[N+]([O-])c1ccccc1O[C@@H]1O[C@H](CO)[C@H](O)[C@H](O)[C@H]1O
Assay: purified protein
Assay type: biochemical, Lactobacillus helveticus
Settings: 50 mM sodium phosphate pH 6.5, 30 °C, oNPG 0.5-22 mM, substrate inhibition seen

B1: recombinant β-galactosidase from L. helveticus (EcoliBL21Lhβ-gal), LacLM (Lactobacillus helveticus; Q7WTB4:Q2E) (protein)
chain 1: MEANINWLDNPEVFRVNQLPAHSDHPFFRDYREWQKQHSSYQQSLNGKWKFHFSANPMDRPQDFYQRDFDSSNFDSIPVPSEIELSNYTQNQYINVLFPWEGKIFRRPAYALDPNDHEEGSFSKGADNTVGSYLKRFDLSSALIGKDVHIKFEGVEQAMYVWLNGHFVGYAEDSFTPSEFDLTPYIQDKDNLLAVEVFKHSTASWLEDQDMFRFSGIFRSVELLGIPATHLMDMDLKPRVADNYQDGIFNLKLHFIGKKAGSFHLLVKDIKGHTLLEKNEDIKENVQINNEKFENVHLWNNHDPYLYQLLIEVYDEQQNLLELIPFQFGFRRIEISPEKVVLLNGKRLIINGVNRHEWDAKRGRSITMSDMTTDINTFKENNINAVRTCHYPNQIPWYYLCDQNGIYVMAENNLESHGTWQKMGEIEPSDNVPGSIPQWKEAVIDRARINYETFKNHTSILFWSLGNESYAGDNIIAMNEFYKSHDDTRLVHYEGVVHRPELKDKISDVESCMYLPPKKVEEYLQNDPPKPFMECEYMHDMGNSDGGMGSYIKLLDKYPQYFGGFIWDFIDQALLVHDEISGHDVLRYGGDFDDRHSDYEFSGDGLMFADRTPKPAMQEVRYYYGLHK
chain 2: MDYTNNQLHIIYGDATLGVNGKDFQYIFSYERGGLESLKVHGKEWLYRVPTPTFWRATTDNDRGSGFNLKAAQWLGADMFTKCTDIHLKVDRHDFAELPIAPFNNKFSNHEYAKSAEISFTYQTLTTPATNAKIIYNIDDVGHIKVTMRYYGKKGLPPLPVIGIRLIMPTAATGFDYEGLSGETYPDRMAGAKEGKFHIDGLPVTEYLVPQENGMHMQTKKLTINRETTQNNVDRTNEKFSLSIQQAEKPFNFSCLPYTAEELENATHIEELPLVRRTVLVIAGAVRGVGGIDSWGTDVESAYHINPELDHEFSFILN
notes: overlapping lacLM genes in pET-21d(+) (NcoI/XhoI); C-terminal His-tag (vector), follows lacM end; E. coli BL21 Star (DE3), HisTrap purified; heterodimer ~109 kDa
  Km: 1.40 ± 0.30 mM
  Vmax: 476 µmol/min/mg
  kcat: 865 ± 120 s⁻¹
  kcat/Km: 618000 M⁻¹ s⁻¹

Reference: paper PMC6412629, “β-Galactosidase from Lactobacillus helveticus DSM 20075: Biochemical Characterization and Recombinant Expression for Applications in Dairy Industry” (International Journal of Molecular Sciences, 2019)
